Results published in US20200325480A1 (NOGRA PHARMA, published 2020).

Target: T1, TGF-β1 R1 (mouse, UniProt Q64729 30-503)
T1 construct: Endogenous protein in total cell extracts; It is seen only as part of the 102 Kda band on the anti-Smad7 Western blot; also called TGF-β1 receptor R1
T1 sequence (looked up): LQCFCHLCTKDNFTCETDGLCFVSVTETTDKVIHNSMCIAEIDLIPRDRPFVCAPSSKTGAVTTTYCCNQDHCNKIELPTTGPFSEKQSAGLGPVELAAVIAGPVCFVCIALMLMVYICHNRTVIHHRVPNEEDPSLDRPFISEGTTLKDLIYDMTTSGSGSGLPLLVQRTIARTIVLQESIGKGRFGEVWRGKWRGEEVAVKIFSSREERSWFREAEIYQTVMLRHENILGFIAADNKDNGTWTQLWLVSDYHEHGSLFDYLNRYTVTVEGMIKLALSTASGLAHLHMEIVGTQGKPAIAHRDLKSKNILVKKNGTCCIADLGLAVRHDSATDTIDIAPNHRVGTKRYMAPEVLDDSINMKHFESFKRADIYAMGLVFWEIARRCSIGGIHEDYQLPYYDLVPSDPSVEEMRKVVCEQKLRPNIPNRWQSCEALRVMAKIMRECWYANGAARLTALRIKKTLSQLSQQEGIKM
Assay: Western blot of LPMC total protein extracts with anti-Smad7 antibody (FIG. 3)

B1: Smad7 (other, mouse, UniProt O35253 1-426, looked up)
chain: MFRTKRSALVRRLWRSRAPGGEDEEEGVGGGGGGGELRGEGATDGRAYGAGGGGAGRAGCCLGKAVRGAKGHHHPHPPTSGAGAAGGAEADLKALTHSVLKKLKERQLELLLQAVESRGGTRTACLLLPGRLDCRLGPGAPASAQPAQPPSSYSLPLLLCKVFRWPDLRHSSEVKRLCCCESYGKINPELVCCNPHHLSRLCELESPPPPYSRYPMDFLKPTAGCPDAVPSSAETGGTNYLAPGGLSDSQLLLEPGDRSHWCVVAYWEEKTRVGRLYCVQEPSLDIFYDLPQGNGFCLGQLNSDNKSQLVQKVRSKIGCGIQLTREVDGVWVYNRSSYPIFIKSATLDNPDSRTLLVHKVFPGFSIKAFDYEKAYSLQRPNDHEFMQQPWTGFTVQISFVKGWGQCYTRQFISSCPCWLEVIFNSR
notes: Endogenous protein in total cell extracts, detected by Western blot with a rabbit anti-human Smad7 antibody; also called free Smad7 (47 Kda band)
B1: binds.
